According to PMC2791216, “Phosphorylation of S776 and 14-3-3 Binding Modulate Ataxin-1 Interaction with Splicing Factors” (PLoS ONE, 2009):
Square brackets hold non-standard residues; d marks the D form. Ends that are not written are not given here. Peptide text beside a SMILES is read from it. pS = N[C@@H](COP(=O)(O)O)C(=O)O

T1: 14-3-3ζ (Homo sapiens, UniProt P63104)
T1 sequence (P63104 1-245): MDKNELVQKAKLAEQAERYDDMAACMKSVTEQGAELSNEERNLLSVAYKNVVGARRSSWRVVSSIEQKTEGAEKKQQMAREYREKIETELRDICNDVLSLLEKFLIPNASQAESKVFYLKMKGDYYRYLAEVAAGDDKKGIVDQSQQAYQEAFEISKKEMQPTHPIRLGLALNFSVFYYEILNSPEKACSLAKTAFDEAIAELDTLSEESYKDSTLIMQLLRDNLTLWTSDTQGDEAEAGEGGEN

T2: SPF45 UHM (residues 301–401) (UniProt Q96I25 301-401)
T2 construct: SPF45, also known as RBM17, UHM domain, residues 301-401; The His6-GST tags (vector pETM30) are TEV-cleavable; also called RBM17 UHM; source: E. coli BL21 (DE3)pLysS, purified (Ni-NTA, SEC)
T2 sequence (looked up): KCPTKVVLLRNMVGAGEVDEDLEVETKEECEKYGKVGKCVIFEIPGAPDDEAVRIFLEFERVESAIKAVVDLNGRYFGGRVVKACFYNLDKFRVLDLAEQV

T3: 14-3-3ζ (UniProt P63104 1-245)
T3 construct: 14-3-3 protein, isoform zeta; also called 14-3-3 isoform ζ
T3 sequence (looked up): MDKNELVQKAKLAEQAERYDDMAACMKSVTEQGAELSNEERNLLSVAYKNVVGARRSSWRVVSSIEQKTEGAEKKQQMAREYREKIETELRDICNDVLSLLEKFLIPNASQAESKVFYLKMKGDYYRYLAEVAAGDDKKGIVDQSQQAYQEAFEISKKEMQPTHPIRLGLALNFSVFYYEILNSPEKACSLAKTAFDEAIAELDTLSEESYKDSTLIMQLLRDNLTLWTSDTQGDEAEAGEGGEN


Assays:
14-3-3ζ [1] = molecular target: T1, 14-3-3ζ; assay: ITC binding of Atx1 ULM peptides to 14-3-3ζ; details: 50 mM sodium phosphate buffer (pH 7.0), 150 mM NaCl, 5 mM DTT, 295 K, average of three measurements, n.b. = binding not detectable
Description: Since S776 phosphorylated Atx1 binds also the 14-3-3 protein [17], we compared the affinity of this interaction. We used a peptide C-terminally extended as compared to the one previously designed to probe interaction with U2AF65 UHM so to include P778 and encompass the complete 14-3-3 ‘mode II’ recognition motif (Atx1_pS_ULM_PE, residues 769–779). We compared the affinities of this peptide with the non-phosphorylated version (Atx1_S_ULM_PE) and with the shorter Atx1_pS_ULM peptide. […] We chose to work with isoform ζ (14-3-3ζ) since it is present in high concentrations in the neuronal nucleus of all the major affected areas in SCA1 brains.
All the proteins were dialyzed against 50 mM sodium phosphate buffer (pH 7.0), 150 mM NaCl and 5 mM DTT. Solutions of 0.025–0.4 mM UHM proteins in the cell were titrated by injections of a total of 295 µl of 0.25–3.9 mM peptide in the syringe in 21 aliquots. The concentrations of the 14-3-3ζ and ATX1 ULM ligands were adjusted to 0.012–0.037 mM and 0.1–0.4 mM respectively. Data were processed with the software MicroCal Origin version 5.0 provided by the manufacturer. All dissociation constants were averages of three measurements.

U2AF65 UHM, 369-475 = U2AF65 UHM, 369-475 (UniProt P26368); assay: NMR 15N-HSQC titration; details: reference: unphosphorylated Atx1 ULM peptide; sites S776
Sequence of U2AF65 UHM, 369-475 (P26368 whole entry, looked up, the tested form may be a part, one chain of several): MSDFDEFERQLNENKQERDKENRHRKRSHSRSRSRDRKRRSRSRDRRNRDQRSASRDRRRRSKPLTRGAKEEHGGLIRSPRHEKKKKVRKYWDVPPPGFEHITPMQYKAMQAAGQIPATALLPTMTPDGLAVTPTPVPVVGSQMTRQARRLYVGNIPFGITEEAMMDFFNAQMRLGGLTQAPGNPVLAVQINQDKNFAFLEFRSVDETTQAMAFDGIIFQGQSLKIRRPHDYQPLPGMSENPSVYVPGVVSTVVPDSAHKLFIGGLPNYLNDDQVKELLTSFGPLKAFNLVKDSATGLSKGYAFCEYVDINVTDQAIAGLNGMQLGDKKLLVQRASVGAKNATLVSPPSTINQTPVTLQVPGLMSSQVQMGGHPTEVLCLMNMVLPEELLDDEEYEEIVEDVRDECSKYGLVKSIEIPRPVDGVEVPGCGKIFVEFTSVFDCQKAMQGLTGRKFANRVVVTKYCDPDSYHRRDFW

[2] = molecular target: T2, SPF45 UHM (residues 301–401); assay: ITC; 50 mM sodium phosphate buffer (pH 7.0), 150 mM NaCl, 5 mM DTT; 295 K; protein in the cell, peptide in the syringe; single-site model; averages of three measurements; details: both partners purified
[3] = molecular target: T4, U2AF65 UHM (residues 369–475) (UniProt P26368 369-475); assay: as above; details: both partners purified
T4 construct: U2AF65 (splicing factor U2AF 65 kDa subunit), UHM domain, residues 369-475; The His6-GST tags (vector pETM30) are TEV-cleavable; 15N-labelled for the NMR experiments, unlabelled for ITC; also called U2AF65 UHM domain; source: E. coli BL21 (DE3)pLysS, purified (Ni-NTA, SEC)
T4 sequence (P26368 369-475, one chain of several): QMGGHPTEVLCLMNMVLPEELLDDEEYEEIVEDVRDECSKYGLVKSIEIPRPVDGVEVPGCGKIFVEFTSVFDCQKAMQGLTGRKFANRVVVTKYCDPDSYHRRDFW

[4] = molecular target: T4, U2AF65 UHM (residues 369–475); assay: ITC; 20 mM sodium phosphate buffer (pH 6.4), 30 mM NaCl, 5 mM DTT; 295 K; protein in the cell, peptide in the syringe; details: both partners purified
14-3-3ζ [5] = molecular target: T3, 14-3-3ζ; assay: ITC; 50 mM sodium phosphate buffer (pH 7.0), 150 mM NaCl, 5 mM DTT; 295 K; protein in the cell, peptide in the syringe; single-site model; averages of three measurements; details: both partners purified

Kd, 14-3-3ζ (ITC) (14-3-3ζ [1])	Kd [2] [µM]	Kd [3] [µM]	Molecule	also measured
n.b. ^c	–	–	ATRKRRWSAPE [Atx1_S_ULM_PE]	–
n.b.	–	–	ATRKRRWDAPE [Atx1_D_ULM_PE]	–
–	40 ± 1.6	35.8 ± 1.3	ATRKRRW[pS]APE (Ataxin-1 (Atx1), residues 769-779, S776 phosphorylated; source: synthetic peptide; bought: Pepceuticals Limited) [Atx1_pS_ULM_PE]	–
–	–	18.4 ± 0.7	ATRKRRW[pS]A (Ataxin-1 (Atx1), residues 769-777, S776 phosphorylated; also called phosphorylated Atx1 ULM; source: synthetic peptide; bought: Pepceuticals Limited) [Atx1_pS_ULM]	Kd [4]: 0.6 ± 0.08 µM; Kd (14-3-3ζ [5]): 1 ± 0.1 µM
–	0.9 ± 0.07	6.4 ± 0.7	ATRKRRWDAPE (also called S776D peptide; S776D mutant peptide; source: synthetic peptide; bought: Pepceuticals Limited) [Atx1_D_ULM_PE]	–

More lines, now with the values behind:

Molecule	Kd, 14-3-3ζ (ITC) (14-3-3ζ [1])	Kd [2] [µM]	Kd [3] [µM]	also measured
ATRKRRWAAPE [Atx1_A_ULM_PE]	n.b.	–	–	–
Ataxin-1 (Atx1) 769-777 (from UniProt P54253) pS776 Atx1 ULM peptide	–	–	–	binding against the reference (U2AF65 UHM, 369-475): same
C[C@H](N)C(=O)N[C@H](C(=O)N[C@@H](CCCNC(=N)N)C(=O)N[C@@H](CCCCN)C(=O)N[C@@H](CCCNC(=N)N)C(=O)N[C@@H](CCCNC(=N)N)C(=O)N[C@@H](Cc1c[nH]c2ccccc12)C(=O)N[C@@H](COP(=O)(O)O)C(=O)N[C@@H](C)C(=O)N1CCC[C@H]1C(=O)N[C@@H](CCC(=O)O)C(=O)O)[C@@H](C)O [Atx1_pS_ULM_PE] (H-ATRKRRW[pS]APE-OH)	–	–	–	Kd (14-3-3ζ [1]): 0.4 ± 0.03 µM
ATRKRRWSAPE (Ataxin-1 (Atx1), residues 769-779; source: synthetic peptide; bought: Pepceuticals Limited) [Atx1_S_ULM_PE]	–	23.4 ± 1.5	9.2 ± 0.3	–
ATRKRRWAAPE (also called S776A-mutated peptide; S776A mutant peptide; source: synthetic peptide; bought: Pepceuticals Limited) [Atx1_A_ULM_PE]	–	22.5 ± 0.6	8.9 ± 0.4	–
